Numbering of substitutions follows the chain as printed. Where two headings read alike, the source gives them in different places.
B1: SRGAP2A F-BARx-RhoGAP-SH3 (residues 1-799) (domain or fragment)
chain: not shown
B2: SRGAP2A F-BARx (extended F-BAR, residues 1-484) (domain or fragment, human, UniProt O75044 1-484, looked up)
chain: MTSPAKFKKDKEIIAEYDTQVKEIRAQLTEQMKCLDQQCELRVQLLQDLQDFFRKKAEIEMDYSRNLEKLAERFLAKTRSTKDQQFKKDQNVLSPVNCWNLLLNQVKRESRDHTTLSDIYLNNIIPRFVQVSEDSGRLFKKSKEVGQQLQDDLMKVLNELYSVMKTYHMYNADSISAQSKLKEAEKQEEKQIGKSVKQEDRQTPRSPDSTANVRIEEKHVRRSSVKKIEKMKEKRQAKYTENKLKAIKARNEYLLALEATNASVFKYYIHDLSDLIDQCCDLGYHASLNRALRTFLSAELNLEQSKHEGLDAIENAVENLDATSDKQRLMEMYNNVFCPPMKFEFQPHMGDMASQLCAQQPVQSELVQRCQQLQSRLSTLKIENEEVKKTMEATLQTIQDIVTVEDFDVSDCFQYSNSMESVKSTVSETFMSKPSIAKRRANQQETEQFYFTKMKEYLEGRNLITKLQAKHDLLQKTLGESQRT
modifications: fluorescently labeled (in the MST only)
B3: SRGAP2C F-BAR portion (F-BARC, SRGAP2C residues 1-355) (domain or fragment, human, UniProt P0DJJ0 1-355, looked up)
chain: MTSPAKFKKDKEIIAEYDTQVKEIRAQLTEQMKCLDQQCELRVQLLQDLQDFFRKKAEIEMDYSRNLEKLAEHFLAKTRSTKDQQFKKDQNVLSPVNCWNLLLNQVKWESRDHTTLSDIYLNNIIPRFVQVSEDSGRLFKKSKEVGQQLQDDLMKVLNELYSVMKTYHMYNADSISAQSKLKEAEKQEEKQIGKSVKQEDRQTPCSPDSTANVRIEEKHVRRSSVKKIEKMKEKHQAKYTENKLKAIKAQNEYLLALEATNASVFKYYIHDLSDLIDQCCDLGYHASLNRALRTFLSAELNLEQSKHEGLDAIENAVENLDATSDKQRLMEMYNNVFCPPMKFEFQPHMGDMASQ
B4: SRGAP2A F-BAR domain (F-BARA, residues 1-355) (domain or fragment, human, UniProt O75044 1-355, looked up)
chain: B3 chain with H73R, W108R, C205R, H235R, Q250R
modifications: fluorescently labeled (in the MST only)

Legend:
SEC [1] = biological target: the molecule itself; test: SEC
[2] = biological target: SRGAP2A RhoGAP-SH3 domains (isolated) (human, UniProt O75044 485-1071); test: MST
SEC [3] = biological target: the molecule itself; test: SEC; remark: listed apart in the source
[4] = biological target: B1; test: SEC-MALS

Kd [2] [µM]	binding result [4]	Binder	stoichiometry N (SEC [1])	stoichiometry N (SEC [3])
–	–	B1	2	–
3.5	–	B2	–	–
–	binds	B3	–	2
3	–	B4	–	2

Source: paper PMC5435084 (Molecular Biology and Evolution, 2017)
